The supplement of paper PMC9170038

Columns and labels:
MS2 coat protein [1] = assay: apparent KD of MS2 coat protein, switch OFF state (with FMN for OFF switches, without FMN for ON switches); designed switch direction (-1 OFF switch, 1 ON switch): -1; higher = weaker reporter binding; conditions: FMN input: 0 or 200 uM; Eterna round: R93 (includes R88 designs)
Outline: (§1)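 Designed RNA switches were transcribed on-chip from Illumina sequencing clusters and titrated with SNAP-549-labelled MS2 coat protein in twofold steps from 0.7 or 1.5 nM up to 3 µM. Each step lasted 0.8–1.5 h at first and 10–20 min by the end, in 100 mM Tris-HCl pH 7.5, 80 mM KCl and 4 mM MgCl2, without or with constant ligand. Apparent KD is the median, for each design, of fits to normalised cluster binding curves.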

MS2 coat protein [2] = assay: apparent KD of MS2 coat protein, switch ON state; designed switch direction (-1 OFF switch, 1 ON switch): -1; higher = weaker reporter binding; conditions: FMN input: 0 or 200 uM; Eterna round: R93 (includes R88 designs)
Outline: as §1

Sequence | apparent KD of MS2 coat protein (MS2 coat protein [1]) [nM] | apparent KD of MS2 coat protein (MS2 coat protein [2]) [nM]
GAAACACAUGAGGAUCACCCAUGUCAGGAUAUUCAAACAAAAACAAAACAAAACAAACGAAGAAGGGACAAAAG [Mat - Same state - Mayanna Mod - D102] | 32.6 | 27
AAUAUGUUAGGAUAUGCUGCUCGUCACAAAAGUGAUGAGUAGCAGAAGGAACAUGAGGAUCACCCAUGUAAAGA [JL eternac mod 12] | 39 | 31.1
AACAGGACAGGAUAUACAUGAGGAUCACCCAUGUGAGAAUUCAGUAGAUUGCCACAGAGUAGAAGGGUCCUGGA [Ruby 100] | 102 | 58.5
AAAAGGUGAGGAUAUAGGAAAAUAAAAGAAAAUAAAAGAAACUAGAAGGCACAUGAGGAUCACCCAUGUAAUAA [LROPPY Exclusion 4 - v03_deltaG=3.54 break up the As mixed] | 23.6 | 28.7
AACAUGUCAGGAUAUGUAGCAUGAUACGAAAGUAUCAUGCUACAGAAGGGACAUGAGGAUCACCCAUGUGAUCA [Ex4: 940] | 22 | 26.7
CUCAAGUAAGGAUAUGCAAGAAAAGAAAAGAAAGAAAAGAAGCAGAAGGUACAUGAGGAUCACCCAUGUAAGAA [EteRNA is fun!] | 42.3 | 25.4
AGAAAACAUGAGGAUCACCCAUGUAAGGAUAUGCUAAGGGUGGCUUCGGCCACCCAAUGCAGAAGGUACAAAUA [Excalibur] | 40.7 | 20.5
CCCUAGUCAGGAUAUACAAACAUGUCAAAAGACGUGAAAAAACAUGAGGAUCACCCAUGUAGAAGGGACUAGGG [Mat - Exclusion 2 - JL mod - D19] | 15.2 | 15.3
AAAGGACGAGGAUAUACAUGAGGAUCACCCAUGUAAAAAACAUAGUAAAAGAGCUUGUGUAGAAGGCGUCCAAA [Meechl Ex3 2 R2 v8] | 215 | 94.5
AAGAACGGAGGAUAUACAAAAUAAAAGAAAAGAAAGAAAGAACAUGAGGAUCACCCAUGUAGAAGGCCGAAGAA [Sehetepibre Sewesekhtawy] | 29 | 20.9
AAGAACCUAGGAUAUACAUGAGGAUCACCCAUGUAAAAGAAAGAAAGGGAAAAGAAAAGUAGAAGGAGGAAGAA [Heqakheperre Shoshenq II] | 15.7 | 12.1
AAUAACCGAGGAUAUACAUGAGGAUCACCCAUGUGAACAUCCACGAAAAGGAUUCUGUGUAGAAGGCGGAAACC [Soquar] | 13.4 | 15.3
AAAAAGAGAGGAUAUACAUGAGGAUCACCCAUGUGAAAGACGAAAAAAAGUCUAAAAAGUAGAAGGCUCAAAAA [65%, Moding Exclusion3-cac2, 12] | 22.5 | 17.1
AAAAAGCGAGGAUAUACAUGAGGAUCACCCAUGUCAAAAAAAUAGAAAAAAAUAAAAAGUAGAAGGCGCAAAAA [Ex 3 #1] | 63.6 | 75.8
AAAUGUCUAGGAUAUACAUGAGGAUCACCCAUGUGUAAAAAUAAAUACACAAAAGAAAGUAGAAGGAGACAAAG [Mat - Exclusion 3 - Mayanna mod - D121] | 59.9 | 21.6
AGCAAACAUGAGGAUCACCCAUGUGAGGAUAUGAACGAAAAUAAAUAAAAAUAAAAGUUCAGAAGGUACGAGCA [66%, Wbt, 27] | 31.9 | 27.7
AAAGAGUCAGGAUAUUCGUAUAGAGUAGCGCGACUCUAUACGAAGAAGGGACAUGAGGAUCACCCAUGUAAAAA [Ecls4-I] | 51.1 | 50.6
AAGAAGUCAGGAUAUGCUUGUCGUCACAAAAGUGAUGACGAGCAGAAGGGACAUGAGGAUCACCCAUGUAAAGA [JL eternac mod 1] | 41.9 | 42.1
GCUGUCGUAGGAUAUACAUGAGGAUCACCCAUGUGAGAGAAAAAAGUGAGAAAGAAAAGUAGAAGGACGGUAGG [salish99-ex3-105] | 43.1 | 37.5
AAAAAGGCAGGAUAUACAUGAGGAUCACCCAUGUUAAAAAAAAAAAAAAAAAAAAAGUGUAGAAGGGCCAAAAA [Default title] | 47.6 | 37.4
AAAAAACAUGAGGAUCACCCAUGUGAGGAUAUGAACGAAAAUAAAUAAAAAUAAAAGUUCAGAAGGCACAAAAA [66%, Wbt, 10] | 47.9 | 42.2
AUAAAACAUGAGGAUCACCCAUGUAAGGAUAUGCGAAAAUAAAAUAAAAUAAAAUAAAGCAGAAGGUACAAAAA [Insulation 1] | 37.3 | 29.1
